In the data set the target is PRDM9Cst (Mus musculus (CAST/EiJ)) (UniProt Q96EQ9). As to the kind of experiment: EMSA competition. The settings on record: 10 mM Tris pH 7.5, 50 mM KCl, 1 mM DTT, 50 ng/ul poly(dI/dC), 0.05% NP-40, 0.5 pmol labelled dsDNA (printed pmol/l), 3 ul E. coli extract in 20 ul, 40 min, 5% …. On the technique in general: In EMSA bound probe runs differently from free probe, usually more slowly.
Sequence of PRDM9Cst (Mus musculus (CAST/EiJ)) (Q96EQ9 whole entry): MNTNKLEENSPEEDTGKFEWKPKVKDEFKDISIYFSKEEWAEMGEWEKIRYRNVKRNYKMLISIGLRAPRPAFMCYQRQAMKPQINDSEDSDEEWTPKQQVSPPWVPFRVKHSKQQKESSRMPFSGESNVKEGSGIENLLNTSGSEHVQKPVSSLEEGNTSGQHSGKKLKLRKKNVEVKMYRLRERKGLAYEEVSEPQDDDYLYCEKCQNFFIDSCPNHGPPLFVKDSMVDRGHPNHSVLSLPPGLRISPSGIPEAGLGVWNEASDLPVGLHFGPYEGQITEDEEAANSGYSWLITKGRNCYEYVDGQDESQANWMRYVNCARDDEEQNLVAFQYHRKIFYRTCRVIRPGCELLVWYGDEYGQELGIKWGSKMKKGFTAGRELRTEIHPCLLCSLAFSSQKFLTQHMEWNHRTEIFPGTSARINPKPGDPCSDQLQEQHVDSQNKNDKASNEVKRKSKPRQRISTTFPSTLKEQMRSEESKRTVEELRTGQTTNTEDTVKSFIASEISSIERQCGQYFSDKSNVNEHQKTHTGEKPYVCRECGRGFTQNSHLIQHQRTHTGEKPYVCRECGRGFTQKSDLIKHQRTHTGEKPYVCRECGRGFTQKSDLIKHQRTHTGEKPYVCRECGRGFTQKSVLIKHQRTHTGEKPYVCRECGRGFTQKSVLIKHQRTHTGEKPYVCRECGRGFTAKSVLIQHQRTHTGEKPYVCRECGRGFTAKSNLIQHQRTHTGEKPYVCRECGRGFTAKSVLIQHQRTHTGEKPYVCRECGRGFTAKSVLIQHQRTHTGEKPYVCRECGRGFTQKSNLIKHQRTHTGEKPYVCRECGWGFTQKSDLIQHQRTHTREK

Sequence “ATAGTGTGCAGACTTGGACCCTGCCCTTTCTTTACG (double strand) [Hlx1 36 bp B6]” came in with a binding signal (fold stronger than CAST sequence) of 2.9.

Regarding “ATAAGTGTTCAGACTTGGACTCTGCCCTTCCTTTAC (double strand) [Hlx1 36 bp CAST]”, the binding signal (scale: reference) is 1.

Values taken from article PMC4053984.
